Test results from PMC4258113 (Journal of proteome research, 2013).
Where no end group is shown, it is not given here. Me3 = trimethyl-lysine (trimethylated lysine)

T1: GST-tagged chromodomain (a.a. 1-90) of Drosophila melanogaster polycomb protein (Drosophila melanogaster, UniProt P26017 1-90)
T1 sequence (looked up): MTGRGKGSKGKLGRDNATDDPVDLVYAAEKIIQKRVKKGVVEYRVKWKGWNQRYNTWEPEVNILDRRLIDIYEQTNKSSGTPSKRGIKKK


Target: T1, GST-tagged chromodomain (a.a. 1-90) of …
Assay: peptide or protein array

Row | Binder | binding result
1 | DSGKAKAK(Me3)A [trimethylated histone peptide DSGKAKAKA (H2AV, lysine site 15)] | binds
2 | IQAVLLPK(Me3)K [trimethylated histone peptide IQAVLLPKK (H2A1 and other H2A, lysine site 117)] | binds
3 | RIHRLLRK(Me3)G [trimethylated histone peptide RIHRLLRKG (H2A1A, lysine site 35)] | binds
4 | GRIHRHLK(Me3)S [trimethylated histone peptide GRIHRHLKS (H2AZ, lysine site 37)] | binds
5 | GGAKRHRK(Me3)V [trimethylated histone peptide GGAKRHRKV (H4, lysine site 20)] | binds
6 | REIRRYQK(Me3)S [trimethylated histone peptide REIRRYQKS (H3.3, lysine site 56)] | binds
7 | PRKQLATK(Me3)A [trimethylated histone peptide PRKQLATKA (H3.3, lysine site 23)] | binds
8 | RTKQTARK(Me3)S [trimethylated histone peptide RTKQTARKS (H3.3, lysine site 9)] | binds
9 | LATKAARK(Me3)S [trimethylated histone peptide LATKAARKS (H3.3, lysine site 27)] | binds
10 | ASKDLKVK(Me3)R [trimethylated histone peptide ASKDLKVKR (H2AZ, H2AV, lysine site 79)] | binds
11 | MDVVYALK(Me3)R [trimethylated histone peptide MDVVYALKR (H4, lysine site 91)] | binds
12 | EGTKAVTK(Me3)Y [trimethylated histone peptide EGTKAVTKY (H2B1A and other H2B, lysine site 117)] | binds
